# Target: extracellular domain (25-250) of the human EPO receptor EPOR (human) (UniProt P19235)
# Assay: SEC + other: RP-HPLC-MS of the isolated complex after dissociation; proteins mixed in solution under dilute conditions (about 0.3 mg EPOR per mL); gel filtration over an analytical Superdex 75 column; complex peak analysed by non-reducing SDS-PAGE, then dissociated with 0.2 % TFA (1 h) and analysed by RP-HPLC-MS for the ratio of the two proteins
row,Substance,stoichiometry N
1,EPO A (synthetic asialo glycoform of human erythropoietin 1-166 with three biantennary N-glycans terminating with galactose) (from UniProt P01588 28-193) (ligand),1 EPO:EPOR
2,"EPO S (synthetic sialylated glycoform of human erythropoietin 1-166 with three alpha-2,6-sialylated biantennary N-glycans) (from UniProt P01588 28-193) (ligand)",1 EPO:EPOR
